This series concerns the molecule itself. Nature of the series: mass spectrometry.

B1: MinE-His (wild-type MinE with a His tag, plasmid pSOT13 [PT7::minE-his]) (natural protein, E. coli, UniProt P0A734 1-88, looked up)
chain: MALLDFFLSRKKNTANIAKERLQIIVAERRRSDAEPHYLPQLRKDILEVICKYVQIDPEMVTVQLEQKDGDISILELNVTLPEAEELK
As to B1, the “stoichiometry N” value worked out at 2.

The values are drawn from article PMC2814086 (Molecular Microbiology, 2009).
